The experiment concerns the target T1, AtCKA1 (residues 76-409) with C-terminal 6xHis tag (Arabidopsis thaliana, UniProt Q08467 76-409).
T1 sequence (looked up): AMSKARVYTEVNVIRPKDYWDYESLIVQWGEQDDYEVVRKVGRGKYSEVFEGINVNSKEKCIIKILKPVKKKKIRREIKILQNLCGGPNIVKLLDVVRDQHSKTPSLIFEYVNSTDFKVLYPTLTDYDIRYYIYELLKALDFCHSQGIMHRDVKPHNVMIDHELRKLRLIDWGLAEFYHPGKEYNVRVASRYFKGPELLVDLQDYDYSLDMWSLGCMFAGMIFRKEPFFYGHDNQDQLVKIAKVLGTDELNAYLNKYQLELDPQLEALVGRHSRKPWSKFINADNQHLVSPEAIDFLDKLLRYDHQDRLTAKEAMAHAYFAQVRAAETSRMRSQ
The experiment in a line: SEC-MALS.

B1: AtCKB1 (residues 95-287), untagged (domain or fragment, Arabidopsis thaliana, UniProt P40228 95-287, looked up)
chain: DGEDTSWISWFCNLRGNEFFCEVDDDYIQDDFNLCGLSSLVPYYEYALDLILDVESSQGEMFTEEQNELIESAAEMLYGLIHARYILTSKGLAAMLDKYKNYDFGRCPRVYCCGQPCLPVGQSDLPRSSTVKIYCPKCEDIYYPRSKYQGNIDGAYFGTTFPHLFLMTYGHLKPAKATQNYVQRVFGFKLHKP
B1: the “stoichiometry N” value is 1 β per α (2:2, α2β2).

(Values after publication doi:10.1101/2025.11.27.691040 (bioRxiv, 2025).)
